In patent publication US20060134122A1, “Peptides of syndecan-1 for inhibition of cancer” (priority 2004, published 2006):
Blank lines part the entries; values can stand above or below the molecule they belong to.

How the values were obtained:
Format in all cases: cell-based
[1] = test system: MDA-MB-231 human mammary carcinoma cells; assay: Cell spreading assay (rhodamine-phalloidin), MDA-MB-231; conditions: 2 h, LM609 30 μg/mL, GST-mS1ED or GST-mS4ED 20 μM; for cell spreading on FN: wells coated with 10 μg/mL FN, mAb 13 25 μg/mL; for cell spreading on VN: wells coated with 10 μg/mL VN, absence of serum
Method: FIG. 1 —MDA-MB-231 human mammary carcinoma cell spreading on VN, but not FN, is disrupted by soluble, recombinant Sdc-1ED. Cells were plated on wells coated with 10 μg/mL of VN or FN in plating medium alone or medium containing either 30 μg/mL mAb LM609, 25 μg/mL mAb 13, 20 μM GST-mS1ED or -mS4ED. Cells were incubated at 37° C. for 2 h, fixed and stained with rhodamine-conjugated phalloidin. Bar, 50 μm.
FIGS. 6A-B—Deletion of a region of the Sdc-1ED blocks αvβ3-mediated cell spreading. (FIG. 6A) Graphic representation of S1 expression constructs transfected into MDA-MB-231 cells and their relative expression levels as detected by FACS (mean fluorescent intensity). Note the locations of the mAb 281.2 and B-B4 binding sites; asterisks indicate the HS attachment sites. (FIG. 6B) Cells transfected with empty vector (NEO) or S1 constructs were seeded in plating medium on wells coated with either anti-hS1 mAb B-B4 (NEO+inset, hS1 and insets of mS1) or anti-mS1 mAb 281.2 (all others). Where noted, cells were pretreated in suspension with 1 μg/mL mAb P5D2 for 15 min prior to plating. Cells were incubated at 37° C. for 2 h, fixed and stained with rhodamine-conjugated phalloidin. Bar, 50 μm.
FIGS. 8A-H—Downregulation of Sdc-1 expression by siRNA disrupts cell spreading and migration on VN. (FIG. 8A) SiRNA targeting of hS1 mRNA. FACS analysis for (FIGS. 8B-C) hS1 (mAb B-B4), (FIG. 8D) hS4 (mAb F94-8G3) and (FIG. 8E) mS1 (mAb 281.2) expression against IgG controls (black filled histograms) in NEO and GPI-mS1ED expressing MDA-MB-231 cells 72 h after transfection with either lipid-vehicle alone (Vehicle or (V)) or 200 nM siRNA (RNAi or (R)). (FIG. 8F) NEO^MDA-MB-231 cells and MDA-MB-231 cells expressing GPI-mS1ED, mS1^Δ88-252, mS1^Δ122-252 and mS1^TDM were transfected with lipid-vehicle alone or 200 nM hS1-siRNA and seeded on wells coated with either 10 μg/ml of VN or FN. Cells were incubated at 37° C. for 2 h, fixed and stained with rhodamine-conjugated phalloidin. Bar, 50 μm. (FIG. 8G-H) Lipid-vehicle (gray-filled) or hS1-siRNA (black-filled) transfected cells were also plated on polycarbonate filters coated with either 10 μg/ml of VN (FIG. 8G) or FN (FIG. 8H) in a modified Boyden chamber. After 16 h, cells that migrated through the filter in response to 10% FBS in the lower chamber were quantified by colorimetric staining.
MDA-MB-231 human mammary carcinoma cells, plated in the absence of serum, adhere to and spread (˜15-20 min after plating) on wells coated with either 10 μg/mL VN or FN (FIG. 1). […] LM609 has no effect on spreading in response to FN; instead, the cells rely on […] to respond to FN as spreading is blocked by either 25 μg/mL mAb 13 (FIG. 1; Mould et al., 1996) or mAb 16 (unpublished data; Akiyama et al., 1989). […]

[2] = target: T1, αvβ3 integrin (Homo sapiens, UniProt P05106+P06756); assay: WOW1 Fab binding (activated αvβ3 integrin), MDA-MB-435; conditions: cells adherent to mAb B-B4; 20 μM GST-mS1ED
T1 construct: endogenous in cells; host or cells: MDA-MB-435 (A4) and MDA-MB-231 (A5) human mammary carcinoma cells
Method: (§1) FIGS. 2A-C—Sdc-1 adhesion-mediated cell spreading correlates with αvβ3 integrin. expression and activity. (FIG. 2A) FACS analysis of αvβ3 integrin expression (mAb LM609) in human mammary carcinoma cells against an IgG isotype control. (FIG. 2B) Depicted on split panels are phalloidin-stained MDA-MB-435 (upper half) and MCF-7 (lower half) cells 2 h after plating on wells coated with mAb B-B4 in plating medium alone or medium containing either 30 μg/mL mAb LM609, 1 μg/mL mAb 13 or 20 μM GST-mS1ED. Bar, 50 μm. (FIG. 2C) Untreated MDA-MB-435, MDA-MB-231 and MCF-7 cells (columns 1 and 4) and cells pretreated in suspension with 1 μg/mL mAb 13 (columns 2 and 3) were seeded on wells coated with either mAb B-B4 or COL I in plating medium alone (columns 1, 2 and 4) or medium containing 20 μM GST-mS1ED (column 3). Cells were incubated at 37° C. for 2 h, fixed, permeabilized and stained with WOW1 and an Alexa 488-conjugated secondary. Panel insets are corresponding phase contrast pictures. Bar, 20 μm.
(§2) To verify that cell spreading induced upon Sdc-1 ligation correlates with αvβ3activation, the inventors relied upon binding of the ligand-mimetic WOW1 mouse Fab—a probe that detects activated, but unligated αvβ3 integrin. MDA-MB-435 cells adherent to mAb B-B4 display strong binding of WOW1 both centrally and within puncta at the spreading margin of cells (FIG. 2C). […]

[3] = target: T1, αvβ3 integrin; assay: WOW1 Fab binding (activated αvβ3 integrin), MDA-MB-231; conditions: cells adherent to mAb B-B4, pre-treated with 1 μg/mL mAb 13; GST-mS1ED 20 μM
Method: as §1, §2

T1 sequence (P06756 31-889 limits assumed): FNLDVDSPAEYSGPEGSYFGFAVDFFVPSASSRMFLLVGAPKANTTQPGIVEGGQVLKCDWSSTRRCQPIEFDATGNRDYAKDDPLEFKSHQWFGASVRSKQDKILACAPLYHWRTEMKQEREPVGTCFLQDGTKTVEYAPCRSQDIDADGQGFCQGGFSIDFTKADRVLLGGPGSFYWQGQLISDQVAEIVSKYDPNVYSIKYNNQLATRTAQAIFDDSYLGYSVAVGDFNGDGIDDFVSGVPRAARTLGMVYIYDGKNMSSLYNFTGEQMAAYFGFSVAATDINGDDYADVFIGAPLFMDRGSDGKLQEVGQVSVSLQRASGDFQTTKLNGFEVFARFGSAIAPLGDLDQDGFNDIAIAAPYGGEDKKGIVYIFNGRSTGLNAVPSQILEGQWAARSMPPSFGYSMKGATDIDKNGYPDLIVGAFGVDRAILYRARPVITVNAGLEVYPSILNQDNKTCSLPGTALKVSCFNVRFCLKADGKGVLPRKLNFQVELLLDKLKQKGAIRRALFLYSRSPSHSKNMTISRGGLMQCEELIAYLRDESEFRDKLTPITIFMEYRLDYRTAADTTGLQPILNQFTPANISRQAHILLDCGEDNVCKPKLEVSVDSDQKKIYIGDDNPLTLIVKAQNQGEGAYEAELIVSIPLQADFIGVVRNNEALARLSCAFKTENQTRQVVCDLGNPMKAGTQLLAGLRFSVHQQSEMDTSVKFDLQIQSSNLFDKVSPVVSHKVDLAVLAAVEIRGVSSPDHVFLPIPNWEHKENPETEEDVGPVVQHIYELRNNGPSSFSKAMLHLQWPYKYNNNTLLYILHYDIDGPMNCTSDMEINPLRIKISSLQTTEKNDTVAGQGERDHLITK
T1 sequence (P06756 891-1048 limits assumed): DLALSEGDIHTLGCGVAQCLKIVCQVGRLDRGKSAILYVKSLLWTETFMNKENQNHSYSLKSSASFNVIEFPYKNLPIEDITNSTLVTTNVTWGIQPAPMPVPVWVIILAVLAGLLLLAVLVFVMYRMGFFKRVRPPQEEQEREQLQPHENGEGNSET
T1 sequence (P05106 27-788): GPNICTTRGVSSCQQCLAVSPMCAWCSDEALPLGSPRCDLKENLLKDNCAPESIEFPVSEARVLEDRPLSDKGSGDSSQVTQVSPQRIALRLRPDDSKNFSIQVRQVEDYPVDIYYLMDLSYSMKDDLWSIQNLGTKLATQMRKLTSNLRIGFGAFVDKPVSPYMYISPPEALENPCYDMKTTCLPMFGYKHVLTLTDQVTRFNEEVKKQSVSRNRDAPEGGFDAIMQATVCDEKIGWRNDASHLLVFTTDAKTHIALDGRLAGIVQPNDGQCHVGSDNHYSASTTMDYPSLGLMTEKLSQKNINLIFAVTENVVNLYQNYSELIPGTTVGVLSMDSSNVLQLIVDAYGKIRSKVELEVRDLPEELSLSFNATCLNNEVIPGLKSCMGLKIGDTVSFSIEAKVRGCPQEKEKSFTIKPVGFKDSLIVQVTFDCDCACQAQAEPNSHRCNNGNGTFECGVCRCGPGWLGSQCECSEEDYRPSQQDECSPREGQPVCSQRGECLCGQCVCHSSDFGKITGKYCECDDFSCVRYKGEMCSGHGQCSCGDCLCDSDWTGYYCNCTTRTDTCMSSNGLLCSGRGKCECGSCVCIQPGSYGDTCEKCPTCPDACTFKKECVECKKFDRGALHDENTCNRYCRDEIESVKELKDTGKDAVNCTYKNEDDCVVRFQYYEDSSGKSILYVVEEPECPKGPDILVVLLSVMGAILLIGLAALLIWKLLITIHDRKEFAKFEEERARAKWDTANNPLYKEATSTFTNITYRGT

B1: GST-mS4ED: recombinant GST fusion of mouse syndecan-4 ectodomain, specificity control (protein)
chain: ESIRETEVIDPQDLLEGRYFSGALPDDEDAGGSDDFELSGSGDLDDTEEPRPFPEVIEPLVPLDNHIPENAQPGIRVPSEPKELEENEVIPKRAPSDVGDDMSNKVSMSSTAQGSNIFERTE
modifications: left off: a dimerising Fc or GST
notes: recombinant GST fusion of mouse syndecan-4 ectodomain, specificity control
cell spreading on FN [1]: no effect
cell spreading on VN [1]: no effect

WOW1 binding (αvβ3 activation) [2]: WOW1 fails to bind
WOW1 binding (αvβ3 activation) [3]: WOW1 staining is also lost
B2: GST-mS1ED: recombinant mouse syndecan-1 ectodomain expressed as a fusion protein with GST (protein)
chain: QIVAVNVPPEDQDGSGDDSDNFSGSGTGALPDTLSRQTPSTWKDVWLLTATPTAPEPTSSNTETAFTSVLPAGEKPEEGEPVLHVEAEPGFTARDKEKEVTTRPRETVQLPITQRASTVRVTTAQAAVTSHPHGGMQPGLHETSAPTAPGQPDHQPPRVEGGGTSVIKEVVEDGTANQLPAGEGSGEQDFTFETSGENTAVAAVEPGLRNQPPVDEGATGASQSLLDRKEVLG
modifications: left off: a dimerising Fc or GST
notes: recombinant mouse syndecan-1 ectodomain expressed as a fusion protein with GST
cell spreading on FN [1]: no effect
cell spreading on VN [1]: blocks cell spreading
